Experimental data as given in paper PMC12147174, “PEX1^G843D remains functional in peroxisome biogenesis but is rapidly degraded by the proteasome” (The Journal of Biological Chemistry, 2025).

Columns and labels:
[1] = biological target: T1, ScPex1^WT (Pex1-FLAG), Saccharomyces cerevisiae (Saccharomyces cerevisiae, UniProt P24004 1-1043); experiment: SEC; coexpressed complex purified by Ni-NTA and anti-FLAG resin, equal concentrations of FLAG eluate loaded on Superose 6 in GF buffer (50-60 mM Hepes pH 7.6, 50 mM NaCl, 50 mM KCl, 5% glycerol, 10 mM MgCl2, 1 mM ATP); fractions by SDS-PAGE and Coomassie; details: both partners purified
T1 construct: Pex1, Saccharomyces cerevisiae; Expressed from pETDuet; Forms a heterohexamer with Pex6; also called yeast Pex1; source: E. coli BL21, coexpressed with His-Pex6, purified (Ni-NTA, anti-FLAG M2 agarose, Superose 6)
T1 sequence (looked up): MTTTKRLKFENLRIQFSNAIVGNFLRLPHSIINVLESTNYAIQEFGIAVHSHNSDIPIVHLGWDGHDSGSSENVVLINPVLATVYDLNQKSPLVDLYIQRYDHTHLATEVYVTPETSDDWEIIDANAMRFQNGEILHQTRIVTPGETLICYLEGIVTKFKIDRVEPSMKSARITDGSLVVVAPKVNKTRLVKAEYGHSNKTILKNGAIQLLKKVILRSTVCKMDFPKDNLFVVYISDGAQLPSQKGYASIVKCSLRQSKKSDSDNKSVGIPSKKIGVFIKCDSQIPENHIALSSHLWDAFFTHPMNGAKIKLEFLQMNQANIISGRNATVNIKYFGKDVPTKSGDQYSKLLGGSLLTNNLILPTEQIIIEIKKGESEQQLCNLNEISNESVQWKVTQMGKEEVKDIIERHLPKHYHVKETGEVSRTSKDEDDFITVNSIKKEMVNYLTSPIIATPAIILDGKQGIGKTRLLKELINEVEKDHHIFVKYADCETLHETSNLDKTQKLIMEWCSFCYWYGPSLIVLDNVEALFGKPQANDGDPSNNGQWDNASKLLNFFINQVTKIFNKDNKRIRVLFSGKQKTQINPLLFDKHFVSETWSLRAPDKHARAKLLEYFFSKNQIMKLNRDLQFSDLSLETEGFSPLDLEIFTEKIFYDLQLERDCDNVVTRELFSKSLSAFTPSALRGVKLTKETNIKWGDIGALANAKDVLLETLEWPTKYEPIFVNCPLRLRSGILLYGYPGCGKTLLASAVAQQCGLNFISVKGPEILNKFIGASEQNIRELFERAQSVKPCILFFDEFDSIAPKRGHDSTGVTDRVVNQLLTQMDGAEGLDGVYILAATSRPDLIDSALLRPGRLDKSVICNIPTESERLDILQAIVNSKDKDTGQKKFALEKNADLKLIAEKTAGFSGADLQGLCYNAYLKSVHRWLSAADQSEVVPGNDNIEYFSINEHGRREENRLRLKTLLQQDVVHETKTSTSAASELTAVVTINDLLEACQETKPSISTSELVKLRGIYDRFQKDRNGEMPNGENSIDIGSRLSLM

[2] = biological target: T2, ScPex1^G700D (Pex1-FLAG G700D), Saccharomyces cerevisiae (Saccharomyces cerevisiae, UniProt P24004 1-1043, G700D); experiment: as above; details: both partners purified
T2 construct: Pex1, Saccharomyces cerevisiae, with G700D (homologous to human G843D); source: E. coli BL21, coexpressed with His-Pex6, purified (Ni-NTA, anti-FLAG M2 agarose, Superose 6)
T2 sequence (looked up): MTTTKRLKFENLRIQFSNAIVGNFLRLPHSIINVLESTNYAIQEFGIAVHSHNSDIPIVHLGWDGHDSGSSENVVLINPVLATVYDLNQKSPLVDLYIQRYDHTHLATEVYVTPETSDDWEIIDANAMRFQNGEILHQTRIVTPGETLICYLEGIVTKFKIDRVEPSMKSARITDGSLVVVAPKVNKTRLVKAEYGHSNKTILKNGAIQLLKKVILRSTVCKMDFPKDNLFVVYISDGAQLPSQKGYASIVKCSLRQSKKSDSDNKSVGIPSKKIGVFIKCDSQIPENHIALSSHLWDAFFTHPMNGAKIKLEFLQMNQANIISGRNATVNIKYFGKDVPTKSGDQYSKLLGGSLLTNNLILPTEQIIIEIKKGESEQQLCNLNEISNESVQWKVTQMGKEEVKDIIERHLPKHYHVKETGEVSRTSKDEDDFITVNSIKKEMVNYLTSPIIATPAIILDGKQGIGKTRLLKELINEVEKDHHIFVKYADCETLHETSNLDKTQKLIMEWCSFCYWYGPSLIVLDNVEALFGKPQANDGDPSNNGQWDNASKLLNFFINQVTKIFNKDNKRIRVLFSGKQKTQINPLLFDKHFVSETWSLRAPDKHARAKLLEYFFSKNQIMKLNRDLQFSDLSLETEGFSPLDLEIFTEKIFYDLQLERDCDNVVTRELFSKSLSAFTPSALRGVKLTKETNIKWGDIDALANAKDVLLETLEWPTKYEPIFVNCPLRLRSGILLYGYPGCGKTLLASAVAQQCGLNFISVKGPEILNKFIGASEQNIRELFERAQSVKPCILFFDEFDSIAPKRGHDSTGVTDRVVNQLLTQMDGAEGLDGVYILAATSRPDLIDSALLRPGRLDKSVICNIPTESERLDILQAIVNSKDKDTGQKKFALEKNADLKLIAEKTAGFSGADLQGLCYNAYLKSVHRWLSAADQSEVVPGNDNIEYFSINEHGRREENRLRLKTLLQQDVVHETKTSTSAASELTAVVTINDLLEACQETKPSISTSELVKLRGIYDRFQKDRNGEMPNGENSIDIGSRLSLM

B1: ScPex6 (His-Pex6), Saccharomyces cerevisiae (natural protein)
chain: MKASLTFSLSGIYAPCSISRDIYLEYGDKKAECLYGTIRLPQYGPGCTPGKIVHCVLDDSLPFCSIVVPSKLFGFMPTQPTMDFCYFEPILDNVVPVLDSVTFLINEQLYSKLMDLPQEMQQIQFLHYKYNINSMETVVHSRDILTSGLCQILNCSPFPQGLVDFTETQLILVNDTEQKLSALKYANEDEEYALPKIGTNSALSIDLESLPCTISRDLLRPAPHINDDNSIYAFTDAETLLRLDVTSGSFITVSNMGCVRLVKLFVLLLPNGFKKRTIYAPPKIIASFPDCSVVTISKSNIGHTDIPIANQVFISRVGGWLQSQKCFQNIILTTLKKFFSESKRILCQNDLIPIAFDSSMADLNIAEENDESDDEDELGQYYKNDSLVWFFVTSAELDCFSKDNSHFIIDPNRTKLITTNITNRRPLPLSRSNLQRYYGFAETFYYDLHIFPYVRQLVNILETSFNCSQRGITLNASVLLHSTTNNVGKATMVRFASKYLGIHLLEIDCLSLTSNSRQLDSTSKIIGYIRAKCENVLPYASPAVIFLAHLDSILLDVNANQDPEAIKLQKSINFEMSKLLDDFTFKFPGTTFVGSVNNIDNVPSSFRSHMRFEILVPVPSEAQRLRIFQWYLSSHELNRDVQQKVPVSYMDNISFSSLSSYSAGLTPLDIKSIVETARMTATARFYQESKKCGWLPQSILITQEDLSKATSKARNEFSVSIGAPQIPNVTWDDIGGIDFVKGEILDTIDMPLKHPELFTSGMKKRSGILFYGPPGTGKTLMAKAIATNFSLNFFSVKGPELLNMYIGESEANVRRVFQKAREAKPCVIFFDEIDSVAPKRGNQGDSGGVMDRIVSQLLAELDGMSTDADGVFVIGATNRPDLLDEALLRPGRFDKLLYLGIPDTDTKQLNILEALTRKFVLDNDVKLIELAKLCPFNYTGADFYALCSDAMLNAMSRIARMVEKKVSQHNELTGENISTRRWFDKIATKEDTKVVVKMEDFLKAQEQLTPSVSRAELNHYEAVRANFEGA
notes: Pex6, Saccharomyces cerevisiae; Expressed from pCOLADuet; source: E. coli BL21, coexpressed with Pex1-FLAG, purified (Ni-NTA, anti-FLAG M2 agarose, Superose 6)
B1: binds [1]; binds [2].
